B1: FEM1A (parent)
chain: NIVEYLIQEQPGQEQVAGGEAQPG
B2: COX4I1 (parent)
chain: VAHVKHLSASQKALKEKEKASWSS

Variants of: B1
Test: protein stability index of a GFP-peptide fusion (GPS, HEK-293T) (PSI 1-6); higher = more stable
Settings: c terminus: a fixed tail appended
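Further: lentivirally expressed fusions sorted by FACS into six bins by GFP to DsRed ratio, PSI derived from sequencing read proportions per bin multiplied by bin number.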

In order of rising protein stability index:
1. E4V  1.82
2. N1L  1.85
3. E4I  1.86
4. E4L  1.92
5. E4M  2
6. N1M  2.16
7. Y5W  2.18
8. E4Y  2.31
9. E4F  2.4
10. N1Y  2.52
11. E4W  2.52
12. N1F  2.54
13. I2W  2.59
14. N1W  2.71
15. N1V  2.76
16. N1C  2.79
17. N1A  2.91
18. N1T  2.92
19. V3L  3.07
20. E4C  3.11
21. N1R  3.19
22. N1I  3.26
23. N1K  3.36
24. Q8C  3.36
25. E4R  3.48
26. E4A  3.48
27. Y5F  3.56
28. E4H  3.56
29. E4S  3.64
30. N1D  3.66
31. V3W  3.67
32. I7L  3.69
33. N1S  3.7
34. N1H  3.76
35. N1E  3.85
36. N1Q  3.89
37. V3I  3.91
38. Y5M  3.95
39. E4Q  3.95
40. I7W  3.95
41. Y5I  3.98
42. Y5L  4.03
43. E4K  4.11
44. I7F  4.14
45. I2M  4.15
46. E4G  4.16
47. V3M  4.2
48. V3F  4.21
49. E4N  4.22
50. I2F  4.24
51. I7M  4.25
52. I2L  4.29
53. V3Y  4.33
54. I7Y  4.33
55. N1G  4.34
56. I7V  4.43
57. L6W  4.44
58. Q8A  4.46
59. Y5V  4.49
60. L6M  4.5
61. Y5R  4.54
62. I7G  4.55
63. V3Q  4.57
64. I2Y  4.59
65. E4T  4.6
66. L6I  4.63
67. I7T  4.65
68. L6F  4.71
69. Y5C  4.74
70. I7H  4.74
71. I7S  4.75
72. E4P  4.76
73. I7C  4.78
74. E4D  4.79
75. V3T  4.81
76. Y5N  4.83
77. Y5S  4.83
78. Q8D  4.89
79. I7R  4.92
80. Y5H  4.93
81. V3N  5.01
82. V3C  5.04
83. V3K  5.05
84. V3H  5.06
85. Y5Q  5.08
86. L6Y  5.11
87. L6V  5.11
88. L6C  5.11
89. I2D  5.12
90. I2V  5.13
91. V3A  5.13
92. I7A  5.14
93. L6R  5.16
94. I2C  5.17
95. N1P  5.17
96. I7K  5.17
97. Y5A  5.18
98. I2A  5.21
99. V3R  5.21
100. L6D  5.26
101. I2K  5.27
102. I7E  5.3
103. I7N  5.3
104. I7Q  5.3
105. Y5K  5.31
106. L6Q  5.35
107. L6A  5.36
108. V3E  5.36
109. V3G  5.37
110. I2G  5.39
111. I7D  5.39
112. I2N  5.41
113. L6K  5.42
114. Y5T  5.44
115. L6S  5.45
116. I2H  5.49
117. V3S  5.49
118. L6G  5.51
119. I2P  5.54
120. I2S  5.54
121. I2T  5.57
122. I2R  5.59
123. L6T  5.59
124. I2Q  5.6
125. L6H  5.61
126. I2E  5.63
127. Y5E  5.66
128. Y5D  5.67
129. V3D  5.67
130. L6P  5.7
131. Y5G  5.7
132. L6N  5.71
133. I7P  5.71
134. V3P  5.74
135. L6E  5.82
136. Y5P  5.82

Variants of: B2
Test: as above
Settings: c terminus: a fixed tail appended

In order of falling protein stability index:
1. S24P  4.36
2. S24K  4.25
3. S23P  4.06
4. S23N  4
5. S24Q  3.94
6. S23M  3.77
7. S24N  3.76
8. S23K  3.74
9. S24G  3.62
10. S24T  3.57
11. S24I  3.56
12. S24H  3.45
13. S24L  3.41
14. S24A  3.41
15. S23Y  3.41
16. S24R  3.38
17. S24F  3.33
18. S24C  3.31
19. S23R  3.22
20. S24M  3.17
21. S24V  3.15
22. S24Y  3.13
23. S23L  3.1
24. S24D  2.98
25. S24W  2.95
26. S23I  2.91
27. S23T  2.91
28. S24E  2.81
29. S23Q  2.81
30. S23W  2.81
31. S23V  2.61
